B1: mouse AGR2 (21-175), wild-type [mouse] / MBP-hIRE1b_LD_(35-428)-AviTag-His7 [modified: biotin on the AviTag (endogenous biotinylation of a fraction of the protein in E. coli); biotin on the AviTag (endogenous biotinylation of a fraction of … (parent complex)
chain 1: KDTTVKSGAKKDPKDSRPKLPQTLSRGWGDQLIWTQTYEEALYRSKTSNRPLMVIHHLDECPHSQALKKVFAEHKEIQKLAEQFVLLNLVYETTDKHLSPDGQYVPRIVFVDPSLTVRADITGRYSNRLYAYEPSDTALLYDNMKKALKLLKTEL
chain 2: LRPENLLLVSTLDGSLHALSKQTGDLKWTLRDDPVIEGPMYVTEMAFLSDPADGSLYILGTQKQQGLMKLPFTIPELVHASPCRSSDGVFYTGRKQDAWFVVDPESGETQMTLTTEGPSTPRLYIGRTQYTVTMHDPRAPALRWNTTYRRYSAPPMDGSPGKYMSHLASCGMGLLLTVDPGSGTVLWTQDLGVPVMGVYTWHQDGLRQLPHLTLARDTLHFLALRWGHIRLPASGPRDTATLFSTLDTQLLMTLYVGKDETGFYVSKALVHTGVALVPRGLTLAPADGPTTDEVTLQVSGEREGSPSTAVRYPSGSVALPSQWLLIGHHELPPVLHTTMLRVHPTLGSGTAETRPPENTQAPAFFLELLSLSREKLWDSELHPEEKTPDSYLGL

Variants of B1 are the subject of one assay. The experiment in a line: BLI; HK buffer supplemented with 0.05% Triton X-100 and 1 mM TCEP; 30 °C; IRE1β LD probe immobilised on streptavidin biosensors; parent: 19 nM. (Biolayer interferometry detects binding as a change in optical thickness at a sensor tip.)
As to chain 1 C61E, the screen value amounted to 78.5 µM.
With chain 1 C61S, the screen value was determined as 124 µM.

A further assay covers variants of B1. The experiment in a line: BLI; 90 µM AGR2 variant (highest concentration point); HK buffer supplemented with 0.05% Triton X-100 and 1 mM TCEP; 30 °C; parent: 0.6; read off a plot.
For chain 1 C61E, the response is about 0.23 nm.
As to chain 1 C61S, the response was about 0.3 nm.

The values are drawn from PMC10907699, “The IRE1β-mediated unfolded protein response is repressed by the chaperone AGR2 in mucin producing cells” (The EMBO Journal, 2023).
